*1 amine or outer side, *2 acyl side, *3 side chain or, on linkers, in order; H or OH if unused. Bridges are numbered along the chain shown (N, C = ends). Where no end group is shown, it is not given here. [ ]: non-standard residue; d: D form. The star is where a group is joined. DM1‑SS‑ = DM1-SS- (SPDB) linker/toxin, COc1cc2cc(c1Cl)N(C)C(=O)C[C@H](OC(=O)[C@H](C)N(C)C(=O)CCSSCCCC(=O)*)[C@]1(C)O[C@H]1[C@H](C)[C@@H]1C[C@@](O)(NC(=O)O1)[C@H](OC)/C=C/C=C(\C)C2; TATA = O=C(CC[*:1])N1CN(C(=O)CC[*:2])CN(C(=O)CC[*:3])C1; DM1‑SS(SO3H)‑ = DM1-SS(SO3H)- (SO3H-SPDB) linker/toxin; DM1‑SS‑(Me)‑ = DM1-SS-(Me)- (SPP) linker/toxin; PABC = O=C(OCc1ccc(N[*:1])cc1)[*:2]; Glutaryl = O=C(CCCC(=O)[*:2])[*:1]; hArg = N=C(N)NCCCC[C@H](N)C(=O)O; Cit = NC(=O)NCCC[C@H](N)C(=O)O; βAla = NCCC(=O)O; Sar = CNCC(=O)O
Tests used:
[1] = biological target: Human EphA2 (in house, 0.95 mol biotin/monomer) (Human) (UniProt P29317); test: SPR (Biacore), biotinylated human EphA2 on streptavidin chip
[2] = biological target: Rat EphA2 (in house, 1.4 mol biotin/monomer) (Rat) (UniProt D3ZBN3); test: SPR (Biacore), biotinylated rat EphA2 on streptavidin chip
[3] = biological target: Mouse EphA2 Fc fusion (R&D Systems 639-A2) (Mouse) (UniProt Q03145); test: SPR (Biacore), mouse EphA2-Fc captured by anti-human IgG
Mouse EphA2 (Ecto) = biological target: T1, Mouse EphA2 (Ecto) (Mouse, UniProt Q03145 26-538); test: FP competition vs Reference Compound C
T1 construct: extracellular domain
T1 sequence (Q03145 26-538): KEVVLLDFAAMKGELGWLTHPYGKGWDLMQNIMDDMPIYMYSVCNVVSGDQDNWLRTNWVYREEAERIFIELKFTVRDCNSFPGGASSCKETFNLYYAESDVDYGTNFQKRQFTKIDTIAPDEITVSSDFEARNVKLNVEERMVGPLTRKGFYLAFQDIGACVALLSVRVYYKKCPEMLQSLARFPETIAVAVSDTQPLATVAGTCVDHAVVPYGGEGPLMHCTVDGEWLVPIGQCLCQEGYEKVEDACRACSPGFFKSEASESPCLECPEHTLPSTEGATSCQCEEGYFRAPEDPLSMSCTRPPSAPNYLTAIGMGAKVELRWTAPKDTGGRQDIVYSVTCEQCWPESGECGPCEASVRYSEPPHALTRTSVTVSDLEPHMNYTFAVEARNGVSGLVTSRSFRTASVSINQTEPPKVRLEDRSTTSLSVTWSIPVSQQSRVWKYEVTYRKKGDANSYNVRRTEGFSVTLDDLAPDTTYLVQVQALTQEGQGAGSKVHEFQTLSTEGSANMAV
Description: The gain used for analysis was determined for each tracer at the end of the 60 minutes where there was no protein in the well. […] “Lig” was a defined value of the concentration of tracer used.

Sequence of Mouse EphA2 Fc fusion (R&D Systems 639-A2) (Mouse) (Q03145 26-538): as above
Sequence of Human EphA2 (in house, 0.95 mol biotin/monomer) (Human) (P29317 25-534 limits assumed): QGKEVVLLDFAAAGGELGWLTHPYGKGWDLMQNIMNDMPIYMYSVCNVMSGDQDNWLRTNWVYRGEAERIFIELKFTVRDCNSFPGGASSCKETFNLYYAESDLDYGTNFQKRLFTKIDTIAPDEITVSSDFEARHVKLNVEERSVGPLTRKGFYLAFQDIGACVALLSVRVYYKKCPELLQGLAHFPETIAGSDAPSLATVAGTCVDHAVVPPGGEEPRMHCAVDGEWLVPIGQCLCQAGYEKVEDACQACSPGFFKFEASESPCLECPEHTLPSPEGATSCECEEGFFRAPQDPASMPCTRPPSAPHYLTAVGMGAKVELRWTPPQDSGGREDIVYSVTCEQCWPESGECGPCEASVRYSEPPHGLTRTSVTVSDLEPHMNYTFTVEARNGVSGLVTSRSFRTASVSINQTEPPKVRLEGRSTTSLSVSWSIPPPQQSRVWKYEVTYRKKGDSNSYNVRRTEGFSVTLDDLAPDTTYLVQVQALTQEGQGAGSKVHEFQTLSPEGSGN

Row | Binder | Kd [1] [nM] | koff [1] [s⁻¹] | kon [1] [M⁻¹ s⁻¹] | t1/2 [1] [min] | Kd [2] [nM] | koff [2] [s⁻¹] | kon [2] [M⁻¹ s⁻¹] | t1/2 [2] [min] | Kd [3] [nM] | koff [3] [s⁻¹] | kon [3] [M⁻¹ s⁻¹] | t1/2 [3] [min] | Ki (Mouse EphA2 (Ecto)) [nM]
1 | {DM1‑SS‑(Me)‑}-[βAla][Sar][Sar][Sar][Sar][Sar][Sar][Sar][Sar][Sar][Sar]A[hArg]DCPLVNPLCLHPGWTC (linker 15-22-29 via TATA; not fully specified (C-terminus)) [BCY6032] | 2.1 | 0.00527 | 2.52e+06 | 2.2 |  |  |  |  |  |  |  |  | 
2 | {MMAE-PABC-Cit-Val-Glutaryl}-[βAla][Sar][Sar][Sar][Sar][Sar][Sar][Sar][Sar][Sar][Sar]A[hArg]DCPLVNPLCLHPGWTC (linker 15-22-29 via TATA; not fully specified (C-terminus)) [BCY6033] | 3.41 | 0.00343 | 999000 | 3.5 | 166 | 0.00442 | 26700 | 2.6 | 21.8 | 0.00637 | 292000 | 1.8 | 
3 | {MMAE-PABC-Cit-Trp-Glutaryl}-[βAla][Sar][Sar][Sar][Sar][Sar][Sar][Sar][Sar][Sar][Sar]A[hArg]DCPLVNPLCLHPGWTC (linker 15-22-29 via TATA; not fully specified (C-terminus)) [BCY6034] | 1.64 | 0.00365 | 2.23e+06 | 3.2 |  |  |  |  |  |  |  |  | 
4 | {DM1‑SS(SO3H)‑}-[βAla][Sar][Sar][Sar][Sar][Sar][Sar][Sar][Sar][Sar][Sar]A[hArg]DCPLVNPLCLHPGWTC (linker 15-22-29 via TATA; not fully specified (C-terminus)) [BCY6082] | 2.42 | 0.00242 | 987000 | 4.8 | 28.8 | 0.00364 | 126000 | 3.2 | 18.3 | 0.00597 | 327000 | 1.9 | 
5 | {DM1‑SS‑}-[βAla][Sar][Sar][Sar][Sar][Sar][Sar][Sar][Sar][Sar][Sar]A[hArg]DCPLVNPLCLHPGWTC (linker 15-22-29 via TATA; not fully specified (C-terminus)) [BCY6031] | 1.99 | 0.00495 | 2.49e+06 | 2.3 |  |  |  |  |  |  |  |  | 
6 | ACPLVNPLCLHPGWTCLHG (linker 2-9-16 via TATA; not fully specified (C-terminus)) [Bicycle Compound 73] |  |  |  |  |  |  |  |  |  |  |  |  | 7.27

— patent US20260124312A1 (Bicycle, published 2026)
